The results in this text go back to the nanobody polyreactivity screen of Harvey et al. (2022).

The data set is described as follows: yeast display, Sf9 membrane polyspecificity reagent, FACS + sequencing; frameworks hold sequencing errors. The procedure, abridged:
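Genes from sorted yeast were amplified by colony PCR, read by MiSeq 2 × 250 sequencing and filtered on CDR length. These cells carried a synthetic nanobody library in Saccharomyces cerevisiae BJ5465 and were sorted by FACS into low and high (top ~1%) gates on anti-HA and streptavidin fluorescence. Polyreactivity is labelled according to the gate of origin.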
In the case of “QVQLVESGGGLVQAGGSLRLSCAASGSIFGNNAMGWYRQAPGKERELVAAISSGGSTNYADSVKGRFTISRDNAKNTVYLQMNSLKPEDTAVYYCATYYFYPSWYLLYGEYNYWGQGTQVTVSS”, the “polyreactivity (PSR sort gate)” value is “low polyreactivity”.

With “QVQLVESGGGLVQAGGSLRLSCAASGSIFGNNAMGWYRQAPGKERELVAAITSSGGSTYYADSVKGRFTISRDNAKNTVYLQMNSLKPEDTAVYYCATEWSGYTYWFYEWEYGYWGQGTQVTVSS”, the “polyreactivity (PSR sort gate)” value was “high polyreactivity”.

As for “QVQLVESGGGLVQAGGSLRLSCAASGSIFGNNAMGWYRQAPGKERELVAGINYSGGRTYYADSVKGRFTISRDNAKNTVYLQMNSLKPEDTAVYYCAADGHRQVGWWRFEYGYWGQGTQVTVSS”, the “polyreactivity (PSR sort gate)” value was “low polyreactivity”.

Consider “QVQLVESGGGLVQAGGSLRLSCAASGSIFGNNAMGWYRQAPGKERELVATISYSGDSTYYADSVKGRFTISRDNAKNTVYLQMNSLKPEDTAVYYCAKQSDWVYKDRAYDYWGQGTQVTVSS”, for which the “polyreactivity (PSR sort gate)” value is “low polyreactivity”.

For “QVQLVESGGGLVQAGGSLRLSCAASGSIFGPNAMGWYRQAPGKERELVAAITNGGRTNYADSVKGRFTISRDNAKNTVYLQMNSLKPEDTAVYYCNKARYGTDDYDYWGQGTQVTVSS”, the “polyreactivity (PSR sort gate)” value is reported as “low polyreactivity”.

Consider “QVQLVESGGGLVQAGGSLRLSCAASGSIFGPNAMGWYRQAPGKESELVAAITLSGGSTYYADSVKGRFTISRDNAKNTVYLQMYSLKPEDTAVYYCNADLLPADAPLWVTGGDYWGQGTQVTVTS”, for which the “polyreactivity (PSR sort gate)” value is “low polyreactivity”.

For “QVQLVESGGGLVQAGGSLRLSCAASGSIFGPNSMGWYRQAPGKERELVAAISWTGGRTYYADSVKGRFTISRDNAKNTVYLQMNSLKPEDTAVYYCAVKGHPWGQGTQVTVSS”, the “polyreactivity (PSR sort gate)” value is “low polyreactivity”.

On to “QVQLVESGGGLVQAGGSLRLSCAASGSIFGPYAMGWYRQAPGKDRELVAAISLGGGSTSYADSVKGRFTISRDNAKNTVYIQMNSLKPEDTAVYYCNAEYYSGPYGYNGFDYWGQGTQVTVSS”, for which the “polyreactivity (PSR sort gate)” value is recorded as “low polyreactivity”.

For the sequence “QVQLVESGGGLVQAGGSLRLSCAASGSIFGPYAMGWYRQAPGKERELVAAITWTGGRTYYADSVKGRFTISRDNAKNTVYLQMNSLKPVDTAVYDCAADYSPSTWYLYYTLYYYWGEGTQVTVSS”, the “polyreactivity (PSR sort gate)” value is given as “low polyreactivity”.

For “QVQLVESGGGLVQAGGSLRLSCAASGSIFGPYAMGWYRQAPGKERELVARITLSAGNTYYADSVKGRFTISRDNAKNTVYLQMNSLKPEDTAVYYCAAKVYSKYWFVGNYWGQGRQVTVSS”, the “polyreactivity (PSR sort gate)” value is recorded as “high polyreactivity”.

“QVQLVESGGGLVQAGGSLRLSCAASGSIFGPYVMGWYRQAPGKEREFVAAIRGSGGSTYYADSVKGRFTISRDNAKNTVYLQMNSLKPEDTAVYYCNARLKYTLYYYWGQGTQVTVSS”: the “polyreactivity (PSR sort gate)” value was “high polyreactivity”.

Consider “QVQLVESGGGLVQAGGSLRLSCAASGSIFGQYAMGCYRQAPGKERELVATISSSGGSTYYADSVKGRFTISRDNAKNTVYLQMNSLKPEDTAVYYCAADWTLDPSYGYYADDYWGQGTQVTVSS”, for which the “polyreactivity (PSR sort gate)” value was “low polyreactivity”.

Consider “QVQLVESGGGLVQAGGSLRLSCAASGSIFGRNAMAWYRQAPGKERELVADIWNGGSTYYADSVNGRFTNSRDNAKNTVYFLMNSLKPEDTAVSYCNADADDDGRFGGYMKYDYWGQGTQVTVSS”, for which the “polyreactivity (PSR sort gate)” value was “low polyreactivity”.

For “QVQLVESGGGLVQAGGSLRLSCAASGSIFGRNAMGWSRQAPGNERELVARISYIGGSTYYADSVKARFTISRDNAKTTVYLQMNSLKPEDTAVYYCAKRYGFRYKRMDYWGQGTQVTVSS”, the “polyreactivity (PSR sort gate)” value was “low polyreactivity”.

Consider “QVQLVESGGGLVQAGGSLRLSCAASGSIFGRNAMGWYRQAPGKERELVAAISTSGGSTYYADSVKGRFTISRDNAKNTVYLQMNSLKPEDTAVYYCNAEQYTQLDVNLYDYWGQGTQVTVSS”, for which the “polyreactivity (PSR sort gate)” value is reported as “low polyreactivity”.

For the sequence “QVQLVESGGGLVQAGGSLRLSCAASGSIFGRNDMGWYRQAPGKERELVARITRGGSTNYADSVKGRFTISRDNAKNTVYLQMNSLKPEDTAVYYCAAGARQYRGVPDRYGYWGQGTQVTVSS”, the “polyreactivity (PSR sort gate)” value is recorded as “low polyreactivity”.

On to “QVQLVESGGGLVQAGGSLRLSCAASGSIFGRYAMGWYRPAPGKDRELVAAISDDSSTNYADSVKGRFTISRDNAKHNDYLQMHSLKPEVTAVYYCNADSWRYVAEGLWREYDYWGQGTQVTVSS”, for which the “polyreactivity (PSR sort gate)” value is listed as “low polyreactivity”.

On to “QVQLVESGGGLVQAGGSLRLSCAASGSIFGRYAMGWYRQAPGKERELLAALTYRGGTTYYADSVKGRFTISRDNAKNTVYLQMNSLKPEDTAVYYCAAEGTWYYKYGYFAYYYWGQGTQVTVSS”, for which the “polyreactivity (PSR sort gate)” value is reported as “low polyreactivity”.

On to “QVQLVESGGGLVQAGGSLRLSCAASGSIFGRYAMGWYRQAPGKERELVAAISSSGGRTYYADSVKGRFTISRDNAKNTVYLKMNSLKPEDTAVYYCNKDWYYLIPGYNYWGQGTQVTVSS”, for which the “polyreactivity (PSR sort gate)” value was “high polyreactivity”.

Regarding “QVQLVESGGGLVQAGGSLRLSCAASGSIFGRYAMGWYRQAPGKERELVANITSGDSTNYADSVKGRFTISRDNAKNTVYLQMNSRKPEDTAVYYCAAYRIGQYDYWGQGTQVTVSS”, the “polyreactivity (PSR sort gate)” value is “high polyreactivity”.

For the sequence “QVQLVESGGGLVQAGGSLRLSCAASGSIFGRYAMGWYRQAPGKERELVASISRRCGSTYYADSVKGRFTISRDNAKNTVYLQMNRLKPEDTAVYDCNVAPWSASSANLEDYWGQGNQVTVSS”, the “polyreactivity (PSR sort gate)” value is “high polyreactivity”.

With “QVQLVESGGGLVQAGGSLRLSCAASGSIFGRYAMGWYRQAPGTEREGVAAISRSCDNTSYADSVKGRFTISRDTAKNTVYLQMNSLKPEDSAVYYCNADRPFSLGQRKYVDFDEPYNYWGQGTQVTVSS”, the “polyreactivity (PSR sort gate)” value is listed as “low polyreactivity”.

“QVQLVESGGGLVQAGGSLRLSCAASGSIFGRYAMGWYRQARGKERELVAAISWSGGSTYYADSVKGRFTISRDNAKNTVYLQMNSLKPEDTAVYYCAANYKYAYEYWGQGTQVTVSS”: the “polyreactivity (PSR sort gate)” value is listed as “high polyreactivity”.

In the case of “QVQLVESGGGLVQAGGSLRLSCAASGSIFGRYVMGWYRQAPGTDRELVAAISGSGTSTYYADSVKGRFTISRDNAKNTVYLQMNSLKPEDTAVYYCAARDIKSSHDYDYWGQGTQVTVSS”, the “polyreactivity (PSR sort gate)” value is on record as “low polyreactivity”.

“QVQLVESGGGLVQAGGSLRLSCAASGSIFGSNAMGWYRQAPGKERELVAAITSRGGSTYYADSVKGRFTISRDNAKNTVYLQMNSLKPEDTAVYYCAADYQSVGGAEYDYWGQGTQVTVSS”: the “polyreactivity (PSR sort gate)” value is reported as “high polyreactivity”.

For the sequence “QVQLVESGGGLVQAGGSLRLSCAASGSIFGSNTMGWYRQAPGKEREFVAAISFSGGSTYYADSVKGRFTISRDNAKNTVYLQLNSLKPEDTAVYYWAARQSRVGTSFYYSRRDYWGQGTEVTVSS”, the “polyreactivity (PSR sort gate)” value is on record as “high polyreactivity”.

As to “QVQLVESGGGLVQAGGSLRLSCAASGSIFGSYAMGWNRQAPGKDREFVAGIDQSGSSTYYADSVKGRFTISRDNAKNTVYLQMNSLKPEDTAVYYCAARHRYRTYKMYYWGQGTQVTVSS”, the “polyreactivity (PSR sort gate)” value is “high polyreactivity”.

As to “QVQLVESGGGLVQAGGSLRLSCAASGSIFGSYAMGWYRQAPGKARELVAAISQSGSSTYYADSVKGRFTISRDNAKNTVSLQMNSLKPEDTAVYYCAADWRHLRYRGGLQYDYWGQGTQVTVSS”, the “polyreactivity (PSR sort gate)” value is “high polyreactivity”.

Regarding “QVQLVESGGGLVQAGGSLRLSCAASGSIFGSYAMGWYRQAPGKERELVAGITRRSGSTYYADSVKGRFTISRDNAKNTVYLQMNSLKPEDTAVYYCAADTWFGMDYWGQGTQVTVSS”, the “polyreactivity (PSR sort gate)” value is reported as “high polyreactivity”.

Turning to “QVQLVESGGGLVQAGGSLRLSCAASGSIFGSYAMGWYRQAPGKERELVAGITRRSGSTYYADSVKGRFTISRDNAKNTVYLQMNSLKPEDTAVYYCNAQAYSRRWDARGDYWGQGTQVTVSS”, the “polyreactivity (PSR sort gate)” value is recorded as “high polyreactivity”.

On to “QVQLVESGGGLVQAGGSLRLSCAASGSIFGSYAMGWYRQAPGNERELVAAISKSGGNTYYADSVKGRFTISRDNAKNTVYLQMNSLKPEDTAVYYCAARYRFLRPKVNYWGQGTQVTVSS”, for which the “polyreactivity (PSR sort gate)” value is given as “high polyreactivity”.

Take “QVQLVESGGGLVQAGGSLRLSCAASGSIFGSYARGRYRQAPVKERELVAGITYRGSSTYYADSVKGRFTISRDKAKNTVYLQMNSLKPEDTAVYYCAADPVFDEYDYWGQGTQVTVSS”: the “polyreactivity (PSR sort gate)” value was “low polyreactivity”.

Turning to “QVQLVESGGGLVQAGGSLRLSCAASGSIFGSYTMGWYRQAPGKERELVAAITSSGGGTYYADSVKGRFTISRDNAKNTVYLQMNSLKPEDTAVYYCAAEYRDGYRFSYDYWGQGTQVTVSS”, the “polyreactivity (PSR sort gate)” value is on record as “low polyreactivity”.

Take “QVQLVESGGGLVQAGGSLRLSCAASGSIFGTNAMGWYRQAPGKERELVAAIDGGSTTYYADSVKGRFTISRDNAKNTVYLQMNSLKPEDTAVYYCAADGTRYLNYEGYAGYEYWGQGTQGTVSS”: the “polyreactivity (PSR sort gate)” value is “low polyreactivity”.

Turning to “QVQLVESGGGLVQAGGSLRLSCAASGSIFGTNAMGWYRQAPGKERELVAAISTSADITYYADSVKGRFTISRDNAKNTVYLQMNSLKPEDTAVYYCNKRKWPTFTYAMNYWGQGTQVTVSS”, the “polyreactivity (PSR sort gate)” value is given as “low polyreactivity”.

Consider “QVQLVESGGGLVQAGGSLRLSCAASGSIFGTYAMGWYRQAPGKERELVAAISFIGGDTYYADSVKGRFTISRDNAKNTVYLQMNSLKPEDTAVYYCAADRELSGYGGEYWGQGTQVTVSS”, for which the “polyreactivity (PSR sort gate)” value was “low polyreactivity”.

Take “QVQLVESGGGLVQAGGSLRLSCAASGSIFGVNAMGWYRQAHGKERELVASITGGDSTNYADSVKGRFTISRDNAKNTVYLLMNSLKPEDTAVYYCAKDHYYRYEEGDYWGQGTQVTVSS”: the “polyreactivity (PSR sort gate)” value is recorded as “low polyreactivity”.

Turning to “QVQLVESGGGLVQAGGSLRLSCAASGSIFGVNAMGWYRQAPGKERELVAAISSGGSTNYADSVKGRFTISRDNAKNTVYLQMNSLKPEDTAVYYCAADTKTRSNYDYWGQGTQVTVSS”, the “polyreactivity (PSR sort gate)” value is listed as “low polyreactivity”.

For “QVQLVESGGGLVQAGGSLRLSCAASGSIFGVNDMGWYRQAPGKERELVAGISSGGSTYYADSVKGRFTISRDNAKNTVYLQMNSLKPEDTAVYYCAKPYYDGRTHFDSWGQGTQVTVSS”, the “polyreactivity (PSR sort gate)” value is “low polyreactivity”.

Consider “QVQLVESGGGLVQAGGSLRLSCAASGSIFGVYAMGWYRQAPGKERELVARISGSSGSTRYSDSVKGRFTISRDNAKNTVYLQMNSLKPEDTAVYYCAARAIFRQGDRIYDSWGQGTQVTVSS”, for which the “polyreactivity (PSR sort gate)” value was “high polyreactivity”.
